Measurements taken from patent US20070190024A1 (INSERM INSTITUT NATIONAL DE LA SANTE ET DE LA RECH, published 2007).

Assays:
[1] = biological target: T1, murine high affinity IL-11 receptor complex (IL-11Rα with gp130) on 7TD1 cells (Class 2 sites) (mouse, UniProt Q64385 24-432; Q00560 23-917); assay: cell-based or functional assay
T1 sequence (looked up) 1: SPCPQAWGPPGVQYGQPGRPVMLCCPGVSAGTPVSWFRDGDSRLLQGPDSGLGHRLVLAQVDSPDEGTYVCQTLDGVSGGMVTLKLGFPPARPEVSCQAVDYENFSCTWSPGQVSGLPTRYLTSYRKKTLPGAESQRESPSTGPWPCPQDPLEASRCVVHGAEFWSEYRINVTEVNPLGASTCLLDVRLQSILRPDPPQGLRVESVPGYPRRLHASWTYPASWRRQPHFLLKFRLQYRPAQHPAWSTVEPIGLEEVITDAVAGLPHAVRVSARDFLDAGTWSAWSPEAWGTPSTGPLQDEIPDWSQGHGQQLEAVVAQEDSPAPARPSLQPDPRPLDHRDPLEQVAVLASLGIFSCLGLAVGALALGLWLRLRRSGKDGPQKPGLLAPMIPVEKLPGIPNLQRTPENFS
T1 sequence (looked up) 2: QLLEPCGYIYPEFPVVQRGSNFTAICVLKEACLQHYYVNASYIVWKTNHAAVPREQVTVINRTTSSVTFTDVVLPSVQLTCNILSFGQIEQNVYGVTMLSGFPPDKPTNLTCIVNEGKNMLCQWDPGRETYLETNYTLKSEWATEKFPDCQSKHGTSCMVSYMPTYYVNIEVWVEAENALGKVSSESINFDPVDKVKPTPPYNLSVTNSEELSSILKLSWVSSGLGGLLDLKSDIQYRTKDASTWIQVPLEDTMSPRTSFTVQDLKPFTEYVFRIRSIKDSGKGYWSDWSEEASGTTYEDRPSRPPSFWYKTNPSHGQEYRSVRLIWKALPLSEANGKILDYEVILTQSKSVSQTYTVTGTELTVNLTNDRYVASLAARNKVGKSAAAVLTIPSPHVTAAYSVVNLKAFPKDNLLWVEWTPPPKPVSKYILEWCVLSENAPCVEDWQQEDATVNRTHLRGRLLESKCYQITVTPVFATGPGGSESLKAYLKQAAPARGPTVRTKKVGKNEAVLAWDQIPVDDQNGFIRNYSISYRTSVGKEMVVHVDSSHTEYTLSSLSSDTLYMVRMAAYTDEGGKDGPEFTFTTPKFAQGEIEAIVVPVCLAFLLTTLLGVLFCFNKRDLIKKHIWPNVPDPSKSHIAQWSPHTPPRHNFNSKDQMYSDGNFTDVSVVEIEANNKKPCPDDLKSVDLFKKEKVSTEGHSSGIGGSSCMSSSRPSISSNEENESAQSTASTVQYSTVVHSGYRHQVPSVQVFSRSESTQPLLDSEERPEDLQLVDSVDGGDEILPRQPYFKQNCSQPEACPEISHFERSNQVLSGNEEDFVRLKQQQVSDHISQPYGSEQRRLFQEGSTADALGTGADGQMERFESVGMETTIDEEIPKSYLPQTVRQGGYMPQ

[2] = biological target: T2, human IL-11 receptor (human IL-11Rα and human gp130) on B13Rα1 cells (human, UniProt Q14626 23-422; P40189 23-918); assay: Scatchard analysis, 32P-labelled ligand on B13Rα1 cells; unlabelled competitor H/V-D/A
T2 construct: whole, on cells; also called Ba/F3 cells stably transfected with human gp130 and hIL-11Rα; Ba/F3 cells co-transfected with human IL-11Rα and human gp130
T2 sequence (looked up) 1: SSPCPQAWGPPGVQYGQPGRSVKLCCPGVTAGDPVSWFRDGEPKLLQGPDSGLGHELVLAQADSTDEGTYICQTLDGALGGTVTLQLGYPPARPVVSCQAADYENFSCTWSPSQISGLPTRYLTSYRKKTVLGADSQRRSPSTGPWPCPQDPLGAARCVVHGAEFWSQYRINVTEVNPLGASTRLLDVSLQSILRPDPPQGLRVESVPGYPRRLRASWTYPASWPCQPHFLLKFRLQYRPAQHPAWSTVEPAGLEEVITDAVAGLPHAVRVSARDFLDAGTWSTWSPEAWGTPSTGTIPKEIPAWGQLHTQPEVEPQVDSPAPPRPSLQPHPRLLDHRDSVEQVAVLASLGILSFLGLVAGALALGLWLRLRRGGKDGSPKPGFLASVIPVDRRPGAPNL
T2 sequence (looked up) 2: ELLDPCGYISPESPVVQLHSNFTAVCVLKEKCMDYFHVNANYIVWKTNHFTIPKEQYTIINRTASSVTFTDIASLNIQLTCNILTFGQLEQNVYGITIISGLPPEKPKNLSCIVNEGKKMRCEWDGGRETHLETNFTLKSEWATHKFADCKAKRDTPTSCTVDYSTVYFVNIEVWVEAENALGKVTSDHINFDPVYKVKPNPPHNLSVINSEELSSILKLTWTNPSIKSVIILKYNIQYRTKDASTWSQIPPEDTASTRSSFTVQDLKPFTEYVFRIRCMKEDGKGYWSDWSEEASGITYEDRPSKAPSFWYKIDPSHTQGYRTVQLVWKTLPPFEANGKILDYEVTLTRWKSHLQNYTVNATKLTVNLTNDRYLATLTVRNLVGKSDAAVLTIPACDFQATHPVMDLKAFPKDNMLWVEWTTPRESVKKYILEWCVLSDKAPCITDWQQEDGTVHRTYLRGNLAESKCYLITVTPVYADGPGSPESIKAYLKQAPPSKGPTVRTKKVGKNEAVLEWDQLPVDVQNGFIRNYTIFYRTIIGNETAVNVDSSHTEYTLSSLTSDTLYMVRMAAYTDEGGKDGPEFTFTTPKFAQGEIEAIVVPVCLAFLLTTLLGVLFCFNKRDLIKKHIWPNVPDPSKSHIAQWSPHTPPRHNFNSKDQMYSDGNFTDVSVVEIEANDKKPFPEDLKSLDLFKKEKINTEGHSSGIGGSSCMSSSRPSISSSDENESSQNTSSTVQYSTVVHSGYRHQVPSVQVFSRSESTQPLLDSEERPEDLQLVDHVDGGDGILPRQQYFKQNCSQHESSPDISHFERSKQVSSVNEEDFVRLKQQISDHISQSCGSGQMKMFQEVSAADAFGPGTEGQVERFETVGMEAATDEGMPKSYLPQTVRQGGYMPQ

[3] = biological target: T3, fusion protein of human IL-11R and IL-2 (IL-11R-IL-2) (human, UniProt Q14626 23-370; P60568 21-153, limits assumed); assay: SPR (BiaCore 2000), IL-11R-IL-2 amine-coupled to a CM5 chip
T3 construct: Amine-coupled to a CM5 chip at about 500 RU; also called human IL-11Rα-IL-2 fusion protein; recombinant human IL-11R-IL-2
Method: (§1) These experiments were performed with a BiaCore 2000 optical biosensor (BiaCore, Uppsala, Sweden). A fusion protein of human IL-11R and IL-2 (IL-11R-IL-2) [Blanc et al. (2000). Monoclonal antibodies against the human interleukin-11 receptor alpha-chain (IL-11Ralpha) and their use in studies of human mononuclear cells. J. Immunol. Methods 241, 43-59, the content of which is herein incorporated by reference] was coupled through primary amino groups to a carboxymethyl dextran flow cell (CM5) at a low immobilisation level (about 500 RU per flow cell) compatible with kinetic binding studies. Subsequent binding of parental FPΔIL-11 or mutein was carried out in Hepes-buffered saline (pH 7.4) at a flow rate of 10 μl/minute at room temperature.
(§2) In order to find out if mutagenesis and associated conformational change of H/V-D/A have an effect on its interaction with IL-11Rα, the association and dissociation kinetic constants (kₒₙ, koff) describing parent IL-11 and H/V-D/A mutein binding to human IL-11Rα were determined by surface plasmon resonance biosensor analysis using dextran-immobilized purified human IL-11Rα-IL-2 [Blanc et al. (2000), cited supra] fusion protein as matrix.

[4] = biological target: T2, human IL-11 receptor (human IL-11Rα and …); assay: Scatchard analysis, 32P-labelled ligand on B13Rα1 cells; unlabelled competitor FPΔIL-11
[5] = biological target: T1, murine high affinity IL-11 receptor …; assay: Scatchard analysis, 32P-labelled ligand on 7TD1 cells, Class 2 sites; unlabelled competitor FPΔIL-11
Method: (§3) Binding of ³²P-H/V-D/A on 7TD1 cells was carried out as described for the parental ³²P-FPΔIL-11 on B13Rα1 cells by Wang et al [Wang et al. (2002), cited supra, and incorporated by reference]. 7TD1 cells ([…]) were pre-incubated in culture medium lacking growth factor for 2 h and were washed 3 times with phosphate-buffered saline, pH 7.4 (PBS). For binding studies, radiolabelled H/V-D/A was added to cells at the indicated concentration in PBS containing 0.5% bovine serum albumin. The mixture was incubated at 4° C. for the appropriate time and bound radiolabelled H/V-D/A was separated from the free radioactivity by centrifugation at 3000 g for 1 min through a 0.2 ml layer of a mixture of 40% dioctyl phthalate and 60% dibutyl phthalate (Janssen Chimica, Beerse, Belgium). After quick freezing, the tip of each tube containing the cell pellet was cut-off and radioactivity was counted in a Beckman β-counter. Non-specific binding was determined by incubating cells with radiolabelled H/V-D/A in the presence of a 200-fold molar excess of unlabelled H/V-D/A. […]

[6] = biological target: T4, murine IL-11Rα on 7TD1 cells (Class 1, low affinity sites; isolated IL-11Rα chains) (mouse, UniProt Q64385 24-432); assay: Scatchard analysis, 32P-labelled ligand on 7TD1 cells, Class 1 sites; unlabelled competitor FPΔIL-11
T4 construct: whole, on cells; also called 7TD1 Class 1 sites
T4 sequence (looked up): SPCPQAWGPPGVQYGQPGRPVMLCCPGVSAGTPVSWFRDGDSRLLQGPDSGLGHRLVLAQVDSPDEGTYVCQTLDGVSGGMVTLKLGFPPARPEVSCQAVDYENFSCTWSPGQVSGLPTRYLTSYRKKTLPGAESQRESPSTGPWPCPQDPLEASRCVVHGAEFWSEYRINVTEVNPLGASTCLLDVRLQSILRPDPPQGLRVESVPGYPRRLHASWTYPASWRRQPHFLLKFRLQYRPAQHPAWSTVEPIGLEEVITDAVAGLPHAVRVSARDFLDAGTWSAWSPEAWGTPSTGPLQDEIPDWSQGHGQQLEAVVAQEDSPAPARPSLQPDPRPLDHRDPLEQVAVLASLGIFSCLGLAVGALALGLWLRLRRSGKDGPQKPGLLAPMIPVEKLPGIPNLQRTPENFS
Method: as §3

[7] = biological target: T3, fusion protein of human IL-11R and IL-2 …; assay: SPR, immobilized human IL-11Rα-IL-2
Method: as §1, §2

[8] = biological target: T4, murine IL-11Rα on 7TD1 cells (Class 1, …); assay: Scatchard analysis, 32P-labelled ligand on 7TD1 cells, Class 1 sites; unlabelled competitor H/V-D/A
Method: as §3

[9] = biological target: T4, murine IL-11Rα on 7TD1 cells (Class 1, …); assay: Scatchard analysis, 32P-labelled ligand on 7TD1 cells, low affinity sites
Method: as §3

[10] = biological target: T1, murine high affinity IL-11 receptor …; assay: Scatchard analysis, 32P-labelled ligand on 7TD1 cells, Class 2 sites; unlabelled competitor H/V-D/A
Method: as §3

| Kd [2] | Kd [3] | koff [3] | kon [3] | Kd [4] | fold higher koff than parental FPΔIL-11 [7] | fold higher kon than parental FPΔIL-11 [7] | fold lower Kd than FPΔIL-11 [7] | Binder | concentration required to induce half-maximal proliferation (EC50) of 7TD1 cells [1] | Kd [5] | Kd [6] | Kd [8] | fold lower EC50 of 7TD1 proliferation than wild-type IL-11 [1] | fold higher affinity than FPΔIL-11 [9] | Kd [10] |
| --- | --- | --- | --- | --- | --- | --- | --- | --- | --- | --- | --- | --- | --- | --- | --- |
|  |  |  |  |  |  |  |  | commercial recombinant human IL-11 (rhIL-11, R&D) (ligand) PGPPPGPPRVSPDPRAELDSTVLLTRSLLADTRQLAAQLRDKFPADGDHNLDSLPTLAMSAGALGALQLPGVLTRLRADLLSYLRHVQWLRRAGGSSLKTLEPELGTLQARLDRLLRRLQLLMSRLALPQPPPDPPAPPLAPPSSAWGGIRAAHAILGGLHLTLDWAVRGLLLLKTRL | 15 ng/mL |  |  |  |  |  |  |
| 0.4 nM | 165 nM | 0.000975 s⁻¹ | 5900 M⁻¹ s⁻¹ | 0.44 nM |  |  |  | FPΔIL-11 (parental, non-mutated recombinant human IL-11 with Flag tag and phosphorylation site, deleted of the first 31 N-terminal amino acids) (ligand, Produced in E. coli BL21(DE3); monomer by gel filtration; in SPR it was unlabelled; also called parental FPΔIL-11; parent IL-11) MDYKDDDDKEGRRASVASPDPRAELDSTVLLTRSLLADTRQLAAQLRDKFPADGDHNLDSLPTLAMSAGALGALQLPGVLTRLRADLLSYLRHVQWLRRAGGSSLKTLEPELGTLQARLDRLLRRLQLLMSRLALPQPPPDPPAPPLAPPSSAWGGIRAAHAILGGLHLTLDWAVRGLLLLKTRL | 15 ng/mL | 0.65 nM | 7.2 nM |  |  |  |  |
| 0.71 nM |  |  |  | 0.72 nM | 14 fold | 35 fold | 3 fold | H/V-D/A mutein (FPΔIL-11 with H182V and D186A) (ligand, in SPR it was unlabelled; also called H182V+D186A; mutant FPΔIL-11) MDYKDDDDKEGRRASVASPDPRAELDSTVLLTRSLLADTRQLAAQLRDKFPADGDHNLDSLPTLAMSAGALGALQLPGVLTRLRADLLSYLRHVQWLRRAGGSSLKTLEPELGTLQARLDRLLRRLQLLMSRLALPQPPPDPPAPPLAPPSSAWGGIRAAHAILGGLVLTLAWAVRGLLLLKTRL | 0.03 ng/mL |  |  | 2.7 nM | 400 fold | ~3 fold | 0.6 nM |
